How the values were obtained:
Type in all cases: in vivo, human
[1] = tested on: Patients with Type 2 Diabetes Insufficiently Controlled with Insulin Glargine with or without Metformin; test: 2-h PPG post test meal, 26-week study; settings: subset of mITT treated before breakfast
Method: (§1) Co-primary endpoints at 26 weeks were (1) non-inferiority (95% CI upper bound <0.4%) in HbA1c reduction with LIXI vs GLU-1 and (2) for LIXI vs GLU-3, either non-inferiority in HbA1c reduction (2a) OR superiority (one-sided α≤0.025) in body weight change (2b). FPG, PPG, IG dose, composite outcomes, AEs, and hypoglycemia were assessed.

[2] = tested on: Patients with Type 2 Diabetes Insufficiently Controlled with Insulin Glargine with or without Metformin; test: Insulin dose (insulin glargine, insulin glulisine), 26-week study
Source text: (§2) FIG. 6—Graphical study design. ^1 Insulin glargine should be injected subcutaneously once daily at dinner or breakfast time (according to patient's/investigators' preference). […] Meal used for insulin glulisine dosing should remain the same throughout the 26-week treatment period. ^4 Injection of insulin glulisine prior to breakfast, lunch and dinner.
as §1

[3] = tested on: Patients with Type 2 Diabetes Insufficiently Controlled with Insulin Glargine with or without Metformin; test: Treatment-emergent adverse events, 26-week study
Source text: as §2, §1

[4] = Baseline (before IMP), mITT population
[5] = Week 26 (LOCF), mITT population
[6] = Safety population, PT ≥ 3% table

Insulin Glulisine TID: insulin glulisine three times daily, added to insulin glargine ± metformin (comparator arm)
2-h PPG post test meal, BL (end run-in) mean ± SD ([1]; BL): 262 ± 63 mg/dL
2-h PPG post test meal, Week 26 (LOCF) mean ± SD ([1]; Week 26 (LOCF)): 229 ± 69 mg/dL
2-h PPG post test meal, LS mean treatment difference (lixisenatide vs the labelled arm) ([1]; Week 26): -40 mg/dL
2-h PPG post test meal, LS mean ± SE change from BL ([1]; Week 26): -25 ± 11 mg/dL
Insulin glargine dose change to Week 26, LS Mean difference (SE) of Lixisenatide vs. the labelled insulin glulisine arm ([2]; ANCOVA, mITT population): 3.83 (1.106) U
Insulin glargine dose, Change from baseline to Week 26 (LOCF), LS Mean (SE) ([2]; ANCOVA, mITT population): −3.13 (0.982) U
Insulin Glargine dose, BL (end run-in) mean ± SD ([2]; BL (end run-in), mITT): 65 ± 27 U/day
Insulin glargine dose, Baseline, Mean (SD) [2, 4]: 65.05 (27.01) U
Insulin glargine dose, Baseline, Median [2, 4]: 60.67 U
Insulin Glargine dose, Week 26 (LOCF) mean ± SD ([2]; Week 26 (LOCF), mITT): 61 ± 29 U/day
Insulin glargine dose, Week 26 (LOCF), Mean (SD) [2, 5]: 61.16 (29.33) U
Insulin glargine dose, Week 26 (LOCF), Median [2, 5]: 57.00 U
Insulin Glargine dose, LS mean + SE change from BL ([2]; Week 26, mITT): −3.1 ± 1.0 U/day
Insulin Glargine dose, LS mean treatment difference (lixisenatide vs the labelled arm) ([2]; Week 26, mITT): 3.9 U/day
Insulin glargine dose, Change from baseline to Week 26 (LOCF), Mean (SD) ([2]; mITT population): −3.89 (13.28) U
Insulin glargine dose, Change from baseline to Week 26 (LOCF), Median ([2]; mITT population): −4.00 U
Patients with any TEAE leading to death ([3]; Safety population): 2 (0.7%) n (%)
Patients with treatment emergent SAE: Accidental overdose ([3]; Safety population): 1 (0.3%) n (%)
Patients with TEAE: Accidental overdose [3, 6]: 20 (6.8%) n (%)
Patients with TEAE: Headache [3, 6]: 12 (4.1%) n (%)
Patients with TEAE: Hypoglycaemia [3, 6]: 154 (52.4%) n (%)
Patients with TEAE: Infections and infestations (SOC) [3, 6]: 81 (27.6%) n (%)
Patients with TEAE: Influenza [3, 6]: 14 (4.8%) n (%)
Patients with TEAE: Injury, poisoning and procedural complications (SOC) [3, 6]: 28 (9.5%) n (%)
Patients with TEAE: Investigations (SOC) [3, 6]: 92 (31.3%) n (%)
Patients with TEAE: Metabolism and nutrition disorders (SOC) [3, 6]: 157 (53.4%) n (%)
Adjudicated by PSAC: Acute on chronic pancreatitis ([3]; in vivo): 0 n (%)
Adjudicated by PSAC: Acute pancreatitis ([3]; in vivo): 0 n (%)
Adjudicated by PSAC: Chronic pancreatitis ([3]; in vivo): 0 n (%)
Adjudicated by PSAC: Unknown pancreatitis ([3]; in vivo): 0 n (%)
Gastrointestinal AEs: Diarrhea ([3]; in vivo): 4 (1) n (%)
Gastrointestinal AEs: Nausea ([3]; in vivo): 3 (1) n (%)
Gastrointestinal AEs: Vomiting ([3]; in vivo): 6 (2) n (%)
Patients with TEAE on the specific adverse event form for increased calcitonin (>=20 ng/L): Any ([3]; in vivo): 1 (0.3%) n (%)
Patients with TEAE on the specific adverse event form for increased calcitonin (>=20 ng/L): Blood calcitonin increased ([3]; in vivo): 1 (0.3%) n (%)
Patients with TEAE: Any class ([3]; in vivo): 236 (80.3%) n (%)
Patients with TEAE: Blood glucose decreased ([3]; in vivo): 82 (27.9%) n (%)
Patients with TEAE: Diarrhoea ([3]; in vivo): 4 (1.4%) n (%)
Patients with TEAE: Gastrointestinal disorders (SOC) ([3]; in vivo): 22 (7.5%) n (%)
Patients with TEAE: Nasopharyngitis ([3]; in vivo): 18 (6.1%) n (%)
Patients with TEAE: Nausea ([3]; in vivo): 3 (1.0%) n (%)
Patients with TEAE: Nervous system disorders (SOC) ([3]; in vivo): 29 (9.9%) n (%)
Patients with TEAE: Upper respiratory tract infection ([3]; in vivo): 11 (3.7%) n (%)
Patients with TEAE: Vomiting ([3]; in vivo): 6 (2.0%) n (%)
Patients with any TEAE ([3]; in vivo): 236 (80.3%) n (%)
Patients with any TEAE leading to permanent treatment discontinuation ([3]; in vivo): 3 (1.0%) n (%)
Patients with any treatment emergent SAE ([3]; in vivo): 14 (4.8%) n (%)
Patients with events adjudicated as allergic reaction by ARAC: All, Any category, Any event ([3]; in vivo): 1 (0.3%) n (%)
Patients with events adjudicated as allergic reaction by ARAC: OTHER ALLERGIC REACTION, Rhinitis allergic ([3]; in vivo): 1 (0.3%) n (%)
Patients with events adjudicated as allergic reaction by ARAC: Possibly Related to IMP, Any event ([3]; in vivo): 0 n (%)
Patients with events adjudicated as allergic reaction by ARAC: URTICARIA (HIVES), Urticaria ([3]; in vivo): 0 n (%)
Patients with treatment emergent SAE: Abdominal pain ([3]; in vivo): 0 n (%)
Patients with treatment emergent SAE: Angina pectoris ([3]; in vivo): 1 (0.3%) n (%)
Patients with treatment emergent SAE: Angina unstable ([3]; in vivo): 0 n (%)
Patients with treatment emergent SAE: Ankle fracture ([3]; in vivo): 0 n (%)
Patients with treatment emergent SAE: Any class ([3]; in vivo): 14 (4.8%) n (%)
Patients with treatment emergent SAE: Atrial fibrillation ([3]; in vivo): 0 n (%)
Patients with treatment emergent SAE: Atrioventricular block complete ([3]; in vivo): 1 (0.3%) n (%)
Patients with treatment emergent SAE: Basal cell carcinoma ([3]; in vivo): 1 (0.3%) n (%)
Patients with treatment emergent SAE: Cardiac disorders (SOC) ([3]; in vivo): 5 (1.7%) n (%)
Patients with treatment emergent SAE: Cardiac failure chronic ([3]; in vivo): 1 (0.3%) n (%)
Patients with treatment emergent SAE: Cardiac failure congestive ([3]; in vivo): 1 (0.3%) n (%)
Patients with treatment emergent SAE: Cellulitis ([3]; in vivo): 1 (0.3%) n (%)
Patients with treatment emergent SAE: Cerebrovascular accident ([3]; in vivo): 2 (0.7%) n (%)
Patients with treatment emergent SAE: Decreased appetite ([3]; in vivo): 0 n (%)
Patients with treatment emergent SAE: Dehydration ([3]; in vivo): 0 n (%)
Patients with treatment emergent SAE: Diabetic bullosis ([3]; in vivo): 0 n (%)
Patients with treatment emergent SAE: Epigastric discomfort ([3]; in vivo): 0 n (%)
Patients with treatment emergent SAE: Erysipelas ([3]; in vivo): 0 n (%)
Patients with treatment emergent SAE: Gastric ulcer haemorrhage ([3]; in vivo): 0 n (%)
Patients with treatment emergent SAE: Gastrointestinal disorders (SOC) ([3]; in vivo): 0 n (%)
Patients with treatment emergent SAE: Hepatic mass ([3]; in vivo): 0 n (%)
Patients with treatment emergent SAE: Hepatobiliary disorders (SOC) ([3]; in vivo): 0 n (%)
Patients with treatment emergent SAE: Hypertension ([3]; in vivo): 1 (0.3%) n (%)
Patients with treatment emergent SAE: Hypoglycaemia ([3]; in vivo): 0 n (%)
Patients with treatment emergent SAE: Hypoglycaemic unconsciousness ([3]; in vivo): 0 n (%)
Patients with treatment emergent SAE: Incisional hernia ([3]; in vivo): 0 n (%)

From patent publication US10434147B2, “Treatment type 2 diabetes mellitus patients” (Sanofi-Aventis Deutschland GmbH, priority 2015, dated 2019)
